# Reference: paper PMC4207043, “Distinct N-terminal regions of the exomer secretory vesicle cargo Chs3 regulate its trafficking itinerary” (Frontiers in Cell and Developmental Biology, 2014)
# T1: Recombinant "core" exomer complex (Chs5 residues 1–77 and Chs6-6xHis) (S. cerevisiae, UniProt Q12114 1-77; P40955 1-746)
# T1 construct: Chs5, S. cerevisiae, residues 1–77; Chs6, S. cerevisiae; The end of the 6xHis tag is read from the printed name Chs6-6xHis; also called Chs5(1–77)/Chs6-6xHis exomer complex; purified exomer; source: recombinant, purified as described for the Chs5(1–299)/Chs6-6xHis construct (Paczkowski et al., 2012); not shown: His6, C-terminal, kept
# T1 sequence (looked up) 1: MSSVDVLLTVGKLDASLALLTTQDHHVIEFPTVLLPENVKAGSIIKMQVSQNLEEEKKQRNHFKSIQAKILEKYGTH
# T1 sequence (looked up) 2: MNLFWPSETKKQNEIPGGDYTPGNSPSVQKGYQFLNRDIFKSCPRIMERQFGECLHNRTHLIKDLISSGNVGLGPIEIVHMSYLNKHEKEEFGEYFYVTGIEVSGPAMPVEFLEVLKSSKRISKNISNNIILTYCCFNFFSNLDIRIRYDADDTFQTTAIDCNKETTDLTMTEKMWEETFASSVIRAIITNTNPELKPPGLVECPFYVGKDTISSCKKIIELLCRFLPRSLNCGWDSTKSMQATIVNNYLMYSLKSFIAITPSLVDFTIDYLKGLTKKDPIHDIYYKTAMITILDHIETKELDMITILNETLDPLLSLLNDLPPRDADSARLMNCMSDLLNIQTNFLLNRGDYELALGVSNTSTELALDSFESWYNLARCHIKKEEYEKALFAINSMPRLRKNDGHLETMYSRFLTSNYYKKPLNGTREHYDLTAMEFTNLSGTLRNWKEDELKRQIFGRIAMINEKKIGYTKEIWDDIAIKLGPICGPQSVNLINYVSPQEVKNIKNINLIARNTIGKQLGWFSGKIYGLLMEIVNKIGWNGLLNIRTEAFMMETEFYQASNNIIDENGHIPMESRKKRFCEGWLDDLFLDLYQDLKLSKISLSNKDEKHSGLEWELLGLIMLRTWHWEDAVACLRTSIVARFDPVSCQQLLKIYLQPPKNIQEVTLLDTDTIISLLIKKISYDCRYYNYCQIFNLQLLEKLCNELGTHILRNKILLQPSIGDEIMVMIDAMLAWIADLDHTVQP
# T2: Chs6-6xHis (S. cerevisiae, UniProt P40955 1-746)
# T2 construct: Chs6, S. cerevisiae; The Chs6 chain of m1, written alone for the pairs that touch in the crystal structure; The end of the tag is read from the printed name; also called His-tagged Chs6; source: recombinant, purified with Chs5(1–77) as described (Paczkowski et al., 2012); not shown: His6, C-terminal, kept
# T2 sequence (looked up): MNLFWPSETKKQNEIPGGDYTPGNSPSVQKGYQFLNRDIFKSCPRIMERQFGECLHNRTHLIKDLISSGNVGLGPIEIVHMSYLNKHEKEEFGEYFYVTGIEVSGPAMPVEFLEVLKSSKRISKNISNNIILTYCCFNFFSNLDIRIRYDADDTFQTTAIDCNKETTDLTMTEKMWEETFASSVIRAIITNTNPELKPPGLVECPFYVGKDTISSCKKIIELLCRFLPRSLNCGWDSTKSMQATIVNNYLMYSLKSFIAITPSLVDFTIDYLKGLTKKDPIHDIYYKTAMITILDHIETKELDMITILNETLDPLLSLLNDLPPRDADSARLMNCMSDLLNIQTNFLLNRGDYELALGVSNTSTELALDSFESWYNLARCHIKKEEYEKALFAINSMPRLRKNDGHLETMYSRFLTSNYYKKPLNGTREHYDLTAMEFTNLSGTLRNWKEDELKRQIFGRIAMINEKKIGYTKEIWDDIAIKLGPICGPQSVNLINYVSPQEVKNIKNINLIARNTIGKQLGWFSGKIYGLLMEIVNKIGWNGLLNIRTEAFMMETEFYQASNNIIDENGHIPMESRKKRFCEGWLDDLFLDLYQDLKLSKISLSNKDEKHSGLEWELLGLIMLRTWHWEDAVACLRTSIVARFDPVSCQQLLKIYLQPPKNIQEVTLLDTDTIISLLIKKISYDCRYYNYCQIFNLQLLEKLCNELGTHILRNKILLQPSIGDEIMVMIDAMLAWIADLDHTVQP
# B1: GST-Chs3 fragment, residues 28–52 (domain or fragment, S. cerevisiae, UniProt P29465 28-52, looked up)
# chain: HSVGSGAPHRQGSLVRPERSRLNNP
# notes: Chs3 (chitin synthase), S. cerevisiae, residues 28–52; Vector pGEX-2T; the end of GST is read from the printed name GST-Chs3; source: E. coli Rosetta2 (DE3), isolated from cleared lysate on glutathione resin; not shown: GST, N-terminal, kept
# B2: Chs5(1–77) (domain or fragment, S. cerevisiae, UniProt Q12114 1-77, looked up)
# chain: MSSVDVLLTVGKLDASLALLTTQDHHVIEFPTVLLPENVKAGSIIKMQVSQNLEEEKKQRNHFKSIQAKILEKYGTH
# notes: Chs5, S. cerevisiae, residues 1–77; The Chs5 chain of m1, written alone for the pair that touches in the crystal structure; also called Chs5 residues 1–77; truncated Chs5; source: recombinant, purified with Chs6-6xHis as described (Paczkowski et al., 2012)
# B3: Chs3 peptide matching residues 10–27 (peptide, UniProt P29465 10-27, looked up)
# peptide: DDYYLNLNQDEESLLRSR
# notes: Chs3 (chitin synthase), S. cerevisiae, residues 10–27; only residues 12–25 are visible in the structure; also called peptide of Chs3 residues 10–27; source: synthetic peptide (Genscript, 95% purity)
# B4: GST-Chs3 fragment, residues 1–52 with residues 10–27 deleted (domain or fragment, S. cerevisiae, UniProt P29465 1-52, looked up)
# chain: MTGLNGDDPHSVGSGAPHRQGSLVRPERSRLNNP
# notes: Chs3 (chitin synthase), S. cerevisiae, residues 1–52 lacking residues 10–27; Vector pGEX-2T; the end of GST is read from the printed name GST-Chs3; source: E. coli Rosetta2 (DE3), isolated from cleared lysate on glutathione resin; not shown: GST, N-terminal, kept
# B5: GST-Chs3(1–52) (domain or fragment, S. cerevisiae, UniProt P29465 1-52, looked up)
# chain: MTGLNGDDPDDYYLNLNQDEESLLRSRHSVGSGAPHRQGSLVRPERSRLNNP
# notes: Chs3 (chitin synthase), S. cerevisiae, residues 1–52; Vector pGEX-2T; the end of GST is read from the printed name GST-Chs3; also called Residues 1–52; wild-type GST-Chs3(1–52) fragment; source: E. coli Rosetta2 (DE3), isolated from cleared lysate on glutathione resin; not shown: GST, N-terminal, kept
# How the values were obtained:
# [1] = molecular target: T1, Recombinant "core" exomer complex (Chs5 …); assay: pull-down; GST-Chs3 fragments held on glutathione resin; 10 μl of 5 mg/ml purified exomer added to resin in 500 μl PBS + 1 mM DTT, ~1 h at 4°C, washed 3 times; exomer detected by Western blot with anti-6xHis antibody (by Coomassie staining in Figure 5C); details: both partners purified
# Chs6-6xHis = molecular target: T2, Chs6-6xHis; assay: crystal structure; Chs5(1–77)/Chs6-6xHis exomer co-crystallised with Chs3 peptide, hanging drop vapor diffusion; 0.3 M ammonium sulfate, 0.1 M citric acid pH 4.0; molar ratio 3.85:1 peptide:exomer; details: both partners purified
Binder,binding result [1],binding result (Chs6-6xHis)
B1,binds,–
B2,–,binds
B3,–,binds
B4,binds,–
B5,binds,–
